The record followed here is patent US10376545B2, “Methods for producing hormone secreting cells in a subject” (ViaCyte, Inc., priority 2013, dated 2019).

What all share (type): cell-based, human
Assay [1] deals with INS, GCG, SST, GHRL, PDX1, NKX6.1, NGN3, ID1 expression. In words: Nanostring mRNA analysis of endocrine cell cultures.
A further assay deals with PEC derived from hESC. In words: Flow cytometry analysis of PEC derived from hESC (CHGA, NKX6.1, PDX1 sub-populations). How it is done: (§1) So, Activin levels less than about 25 ng/mL are acceptable for maintaining cell mass and yield. Applicant then performed flow cytometry analysis on these cell cultures to determine whether Activin at low levels during stages 3 and 4 had any effect on cell aggregate composition; see Table 14. […] Advantageously, the PDX1 only and Triple Negative sub-populations are reduced as compared to the control, particularly when Activin is used in stages 3 and 4.
To determine the cell composition of the PEC population with the combination of Activin, Heregulin and Wnt during stage 3, flow cytometry was performed after stage 4 and the PEC cellular composition is shown in Table 14. […] Data from flow cytometry supports and is consistent with data from QPCR that the combination of the three factors (AHW) in general delayed or suppressed differentiation of cells committed to the endocrine lineage (CHGA+) in PEC without affecting the production of the non-endocrine (CHGA−) sub-population. The delayed expression of these genes in vitro is consistent with their on-set (or delay) in in vivo mammalian pancreatic development, whereby NGN3 expression in endocrine differentiation occurs after the on-set of PDX1 and NKX6.1 expression in the non-endocrine (CHGA−) sub-population. Additionally, there was no compromise in the PEC mass and yield. […]
Undifferentiated human ESC were expanded and differentiated substantially as described above in Table 17 Protocol #1 for stages 1-4 and in Schulz et al. (2012) supra, except that during the three (3) days of stage 3, 4 different conditions were compared: (i) 0 noggin (“no noggin”) for all 3 days; (ii) 1 day of Noggin at 50 ng/mL and 2 days with no additional Noggin; (iii) 2 days of Noggin at 50 ng/mL and 1 day with no additional noggin; and (iv) 3 days of Noggin at 50 ng/mL. After stage 3, each of these conditions (i) through (iv) then received the standard stage 4 differentiation media cocktail according to Table 8 and Table 17, but without additional Noggin. […] Moreover, with each additional day of noggin treatment, fewer non-endocrine multipotent pancreatic progenitor sub-populations were produced (compare 90.6% with no noggin to 64.6% with 3 days of noggin treatment).
Background: A flow cytometer gives signals particle by particle.

The subject of assay [2] is hES-derived cell aggregates. In words: Cell aggregate size / cell mass in suspension culture (imaging). How it is done: Preliminary studies were performed using Heregulin and FGF. In certain of these studies, Rho-kinase inhibitor, Y-27632, was included. […] An increase in cell aggregate size is advantageous in that it results in higher cell mass for later implantation and testing for function in animals.
(§2) Various growth factors were explored for their ability to suppress genes such as NGN3 during stages 3 and 4. One candidate growth factor was Activin which has diverse functions in stem cell expansion and differentiation. For example, at low levels (e.g. 10 ng/mL), Activin helps maintain pluripotent stem cell pluripotency and cell proliferation. At higher levels (e.g. 100 ng/mL) Activin acts as a differentiation growth factor responsible for definitive endoderm production at stage 1 (see e.g., Table 8). To test its effect on repressing cells committed to the endocrine lineage (CHGA+) during PEC formation, Applicant first tested Activin at a mid-level concentration of about 50 ng/mL with standard adherent differentiation.
as §1
Pluripotent stem cells were differentiated using the standard protocol according to Table 8, except during stage 3, Activin was included at 10 ng/mL or 20 ng/mL in combination with Heregulin at 2 ng/mL or 10 ng/mL; and during stage 4, Activin was reduced to 5 ng/mL with Heregulin at 1 ng/mL for two days then at 10 ng/mL thereafter. […] Increasing Activin to 20 ng/mL with Heregulin remaining the same at 2 ng/mL exacerbated the cell loss (compare FIGS. 12B and 12C, top panel). […]

The subject of assay [3] is NGN3, NKX2.2, NKX6.1, PDX1 expression. Briefly: Quantitative PCR of relative gene expression in PEC cultures (NGN3, NKX2.2, NKX6.1, PDX1). How it is done:
The progression of pluripotent cells to various multipotent and/or differentiated cells can be monitored by determining the relative expression of genes, or gene markers, characteristic of a specific cell, as compared to the expression of a second or control gene, e.g., housekeeping genes. In some processes, the expression of certain markers is determined by detecting the presence or absence of the marker. Alternatively, the expression of certain markers can be determined by measuring the level at which the marker is present in the cells of the cell culture or cell population. In such processes, the measurement of marker expression can be qualitative or quantitative. One method of quantitating the expression of markers that are produced by marker genes is through the use of quantitative PCR (Q-PCR). Methods of performing Q-PCR are well known in the art. Other methods which are known in the art can also be used to quantitate marker gene expression. For example, the expression of a marker gene product can be detected by using antibodies specific for the marker gene product of interest.
as §2
Quantitative PCR analysis was performed to determine the relative levels of gene expression at days 8, 10 and 12 of differentiation with the above combinations of Activin and Heregulin (FIG. 13). […]

Where [4] appears, read: A5 Stg3&4: 5 ng/mL Activin at stages 3 and 4.
Setting [5] is: A5 Stg3: 5 ng/mL Activin at stage 3.
Where [6] appears, read: A10 Stg3: 10 ng/mL Activin at stage 3.
Setting [7] is: N50-1day: Noggin 50 ng/mL for 1 day of stage 3, after stage 4.
The mark [8] stands for this setting: N50-2day: Noggin 50 ng/mL for 2 days of stage 3, after stage 4.
The mark [9] stands for this setting: N50-3d: Noggin 50 ng/mL for 3 days of stage 3, after stage 4.

“Also recorded” adds a separate entry of the source.

B1: BMP: BMP4, member of the bone morphogenetic protein family (protein, UniProt P12644 293-408, looked up)
Bone morphogenetic protein 4: SPKHHSQRARKKNKNCRRHSLYVDFSDVGWNDWIVAPPGYQAFYCHGDCPFPLADHLNSTNHAIVQTLVNSVNSSIPKACCVPTELSAISMLYLDEYDKVVLKNYQEMVVEGCGCR
In the case of B1, the “Insulin and PDX1 expression” value in assay [1] (10 ng/mL at stages 6 and 7 or stage 7 alone) is “simultaneously increase Insulin and PDX1 expression”. In addition, in assay [1] (agent at days 30-35 during stage 7, analyzed at d35), the pancreatic-lineage gene expression result is “increases expression of INS, PDX1 and IDI; also recorded: decreased GHRL expression”. Further, the ID1 gene expression result in assay [1] (stages 6 and 7) is recorded as “up-regulate inhibitor-of-differentiation (ID) gene expression”.

B2: Activin: TGFβ superfamily growth factor (protein, UniProt P08476 311-426, looked up)
Inhibin beta A chain: GLECDGKVNICCKKQFFVSFKDIGWNDWIIAPSGYHANYCEGECPSHIAGTSGSSLSFHSTVINHYRMRGHSPFANLKSCCVPTKLRPMSMLYYDDGQNIIKKDIQNMIVEECGCS
modifications: Inhibin beta A chain
notes: TGFβ superfamily growth factor
In the case of B2, in the assay on PEC derived from hESC (setting [4]), the “CHGA+ (Endocrine)” value turned out to be 54.9%, the “CHGA−/NKX6.1+/PDX1+ (Non-endocrine)” value amounted to 38%, the “CHGA−/NKX6.1−/PDX1+ (PDX ONLY)” value is 4.1% and the “CHGA−/NKX6.1−/PDX1− (Residual or Triple Negative)” value came out at 2%. Besides, in the assay with PEC derived from hESC (setting [5]), the “CHGA+ (Endocrine)” value is listed as 54.7%, the “CHGA−/NKX6.1+/PDX1+ (Non-endocrine)” value was determined as 31.7%, the “CHGA−/NKX6.1−/PDX1+ (PDX ONLY)” value is on record as 6.7% and the “CHGA−/NKX6.1−/PDX1− (Residual or Triple Negative)” value was found to be 5.4%. Further, in the assay on PEC derived from hESC (setting [6]), the “CHGA+ (Endocrine)” value stood at 56.2%, the “CHGA−/NKX6.1+/PDX1+ (Non-endocrine)” value is on record as 33.7%, the “CHGA−/NKX6.1−/PDX1+ (PDX ONLY)” value is recorded as 4.6% and the “CHGA−/NKX6.1−/PDX1− (Residual or Triple Negative)” value was determined as 3.9%. Also, the “cell mass and yield of aggregates” value in assay [2] (5 ng/mL and 10 ng/mL at stages 3 and 4) was “capable of maintaining cell mass and yield”. Also, the “cell mass of aggregates” value in assay [2] (50 ng/mL during stage 3, cell aggregate suspension culture) is given as “the overall cell mass drastically decreased”. In addition, the “Activin levels acceptable for maintaining cell mass and yield” value in assay [2] (stages 3 and 4, suspension culture) was “less than 25 ng/mL”. The “NGN3 and NKX2.2 expression” value in assay [3] (10 and 20 ng/mL at stage 3 with Heregulin, days 8, 10 and 12) is “capable of repressing NGN3 and NKX2.2”. In assay [3] (about 50 ng/mL, standard adherent differentiation), the “NGN3, PDX1 and NKX6.1 gene expression in PEC” value is “capable of suppressing NGN3 expression without suppressing PDX1 and NKX6.1 gene expression”.

B3: noggin: protein that inactivates TGFβ superfamily signaling proteins such as BMP4 (protein, UniProt Q13253 28-232, looked up)
Noggin: QHYLHIRPAPSDNLPLVDLIEHPDPIFDPKEKDLNETLLRSLLGGHYDPGFMATSPPEDRPGGGGGAAGGAEDLAELDQLLRQRPSGAMPSEIKGLEFSEGLAQGKKQRLSKKLRRKLQMWLWSQTFCPVLYAWNDLGSRFWPRYVKVGSCFSKRSCSVPEGMVCKPSKSVHLTVLRWRCQRRGGQRCGWIPIQYPIISECKCSC
Consider B3, for which, in the assay on PEC derived from hESC (3 days of Noggin at 50 ng/mL at stage 3, after stage 4), the “non-endocrine multipotent pancreatic progenitor sub-population” value is given as 64.6%. The “CHGA+ (Endocrine)” value in the assay with PEC derived from hESC (setting [7]) is 11.9%; in the assay on PEC derived from hESC (setting [8]) it was 25.1%; with PEC derived from hESC (setting [9]), 32.5%. Moreover, the “CHGA−/NKX6.1+ (Non-endocrine)” value in the assay on PEC derived from hESC (setting [7]) is 82%; in the assay on PEC derived from hESC (setting [8]), 71.9%; in the assay on PEC derived from hESC (setting [9]) it was 64.6%. Also, in the assay on PEC derived from hESC (each additional day of noggin treatment at stage 3), the “production of cells committed to the endocrine lineage (CHGA+)” value is given as “increased levels of production of cells committed to the endocrine lineage (CHGA+)”. Also, the “endocrine lineage marker expression (NKX2.2, INS)” value in assay [3] (each additional day of noggin treatment, after stage 4 (day 12)) is given as “increased levels of endocrine lineage marker expression”.
